Experimental data: the domain aggregation screens of Martell et al. (2025)

assay: soluble fraction after stress (log2 fold change); higher = more stays soluble; pooled small domains, quantitative proteomics; conditions: stress: pH 4
Summary of the method: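 Values are log2 fold changes, and higher ones mean more of the domain stayed soluble. Each fold change reflects the soluble amount of a domain after acid stress and is taken as a measure of aggregation propensity. The stress was pH 4, applied to pooled custom libraries of small protein domains analysed by high-throughput quantitative proteomics.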

Sequence | soluble fraction (log2)
HMGGSDIYLGAFNIPQGSVRVTSGGQALTEGKDFTIDYNLGSVKIINQAILNSGIPVSVSYENNAG | -0.294
HMLPDDDMLLNILTKLLIDKQFVINSHEIFDFIIKRANRSYEEMFILVNKLDQLSLEKKRQLTIPLIKEI | -1.22
HMAPTPAGNLRSLKSEIVNYTRQSSTAYVYTFKDLSSGELYTARASRYYAAAGDTAYISTAAGAITDM | -0.0513
HMGFTDREREIIRNDLVATGRELFGTFGLKKTSIEDLTKAVGIAQGSFYTFFNSKEELYLEVMDREGEA | -1.47
HMDLFREERRQAILDWLATAGRVSVAELSASFGVSEVTVRADLQALADRRLVVRTHGGAMMAG | -0.955
HMGLQEADKQDRIARMKELISFLNEAAKAYYQEGREIVSNLEYDKAYDALLSLEKESGVVLSGSPSQNVG | -0.659
HMITFRINQQSQVGLRLDKFIVQQMPDYSRTRIQSWIKTKNILVNGEGKKSGYALEFDDLVEVTIPE | 0.0398
HMPTANFPAMAEALKKQYGPPTGEEETSWTHRLGGVFDIKIQSWNTPQGEMVLRSRGAAMDAGML | 0.283
HMKVRVFIERSNDGYSAYMPDDNNLPFGLTGDGKTAQEAMQDFLLARDEMKEFFIEEGKEFPEVEFDFS | -1.49
HMKLRSIQEQVQYLEKVDNQKAMQIILNMNDKASAVQILRNMKKEKAAAILAQMDPLQAAQILEDLA | -0.132
HMVSEDELLARIALLPYPQAKILLEERLSHDPANAKVRQLYLELAKKSGDHTEVTRHNSLLY | 0.0149
HMDTFEITVEESDIDKRIDLFLAGNLESFSRSYIQDLIKKGKATISGKPVKANYRLREGDSVVLSIPKPK | -0.946
HMYEDNERSLVPIVQNFLKEKKILLSNQSINLIVQRSGGDRINLYNELQKIESFSKNQKKIDIGDIIKLTN | 0.169
HMEQVKFFDAKVITTPPNRLKTRYTPAGNLRPEADWLQSGAIVPVYETSGAGWYRIGYQTWASAEWMQRLD | 0.166
HMIRVGRPQYKRGEFVSFDFDNGRKKTEMYGRVDVIDSYGTFGQGREVSYDIRASDGILYKHIPESSVYGF | 0.28
HMSVTVMVLRAAGDIQAGTEITDKHLATVEVGEYGLPEGIINDKDSILGKIALTDIAKGDYFFSQKLG | -1.31
HMDRASGEEEALKEAEDAISRVWEFDGPVELNPQNSYLRRLQHELASRYNVKSVSIGQEPNRRVVYYK | -0.428
HMSIDNALLTLIGKTGTAQTVLRPSGKVVIGDEVYDAVTAGEFIDKGSAIVVTRVEATQLYVEASEA | -0.343
HMARPLHVDALIHLGTEIGSRVGGAHAGPHLLVAGHSPMSELVYARLLGIPTLGWMRGQLTFVNLSK | 0.108
HMEVHLMPGTVLLREYESNEYRVTVTPEGFYDLNGKVFKSLSAVARHITGVNWSGPRFFGVEP | -0.604
HMDYGSLQRAIENQLEVRNYQKPKKFLTKIIQLMETIMVRHGVMVVGLTGTGKTTVIETLSRSMEQ | -0.529
HMGPSVGMTVGEMERDLIFRTLETVGDNRTKAADMLGISIRTLRNKLNEYREAGFEWPRKAG | -0.0611
HMQLPTPEDLKKRRNELGLTQSDLAKRAGVSQPLIARIESGDVDPRLSTVRKILDAFEEVEKEQQ | 0.0627
HMSYQSYDKVVGDTFFEANLKAESKFGKGNFEIISTRRVKHPIYLGFGHKELVELTIGIHDP | -0.302
HMISDAEWKIMNVLWEEQPRTMMQITKELQEETGWTKHTVMTYLKRMESKKIIHYVEGEKAKLYYS | -0.136
HMVKLSDGIVEHIKSLIMAGRLKPGDKLPPEREFAATLGVSRTALREAVRTLSLMGLLDARQGEGTFVSG | 0.313

Sequence | soluble fraction (log2)
HMNTSMIEHMDKSTFIRFVFTNPVTHDQAVAKLMEKHMWFSTEEKAEAEIDKLLNKTNSLIESGGKLTW | 0.22
HMGTLRPKGTVVFANLPIAADAKEGDMYNISDQFTTTASFKEGAGNVIPAGSNVYRTDDGFWDVL | 0.193
HMELTDRQKQIIEIVKKQQPISGEKIASILGFARATLRPDFSLLTMSGILQAKPKVGYLINEE | 0.158
HMSVLVLPMLKELTHEDREVVELFYLNDMSVREIALIISVPIGTVKSRLHRARAQLKHQIVNLNQ | -1.18
HMREKMKGKILDYNFQESRGIISADDGNRYSFENSQWKGTQSPKVNQIVDFEIDGQNAKDIYLDK | 0.0691
HMEKGLQYRRTDRAIMNAFIKLVNQGSFEKLTVQEILDEALVSRNTFYAHYRDIYDLMDALSN | -1.37
HMPASGISSEIIYDGILIEENLRQLKKDKAWLMDQLKKKGISSVSEVFLATLNKGGSLYIDKY | -0.0537
HMINEDMTQSDRMELWGRLIDVVEDWLAEKGITEEDIPNEEREGVEDAAIIFGDDYDYLADRFSEVIGISR | -1.99
HMGVENDGYVLPRELKKGDTVLIADLGKEATVLSPVDRNGNVEVLAGAAKTRVKLKNLRLIE | 0.179
HMQAKDVEVPDYVGKSFVSIKENNPNDFKFEVKSEYDESKEMGVILDQEPKGGSMKVKSGSTITVTV | 0.0655
HMDIPDIGHNVRIEVDGHNGKTTHEGIILHPAAPNHITIKLANGYNASYKLEEIINIEILGELGDDSKI | -0.863
HMIKLSEAEWKVMKLLWEESPKTMMQITNLLKETTGWTKHTVMTFLKRMEEKKAIHYEEGGRAKLYYP | -0.0902
HMGRQTITLPDFSGQDLEQVKARLTEWGLVPEEKSVFSDSVPLGSVVRTVPAEGDEVSVGDTVTVYKSLGR | 0.252
HMFDVRWEQGYALAAAYAQEYGNLDVPRDYKTADGKKLGRWIQSQEQAYEQKKLSEEQISRLEMIGMQWG | 0.0698
HMGYGEQEAEATKYMSLHAIMSADETLSKMYTPENQHKLMTHVMEQNGIKNVKDYLTPPSELP | -0.443
HMIAAVIAQVANTNERIILEKRYLSFKSWDEIAVEMRISPRWAYTLHERALKAVDQVLSKQNNE | -2.54
HMIQIGEQIRYYRTKIGISQEALALMADINPAYIGQIERGIKSPTVNTIKKIANAMGINLHTLFT | -0.434
HMQISDEAALLAIVDRVIADNQGPLANYLGGKQSLLGWFVGQVMRATRGQAIPAVVNRLVGERLAAQREE | -0.278
HMQNEKLSYFVTETIVTERADLFITKKFPQFSRSQIQKLINSGNITINSNPIKASTEIINKDNIEITIPV | -0.814
HMNAAYDEELDFIFSLSEKGKWEEAEAEIGLLLQKHPEDATLQRIGEWVTTQKILLRQQAVEDRIRS | -0.679
HMAQVVMPNVVGKTEKDATATLEGKNLKVNVEYNLDATSDDGIVKEQSIKSGENIDEGTEITLKVNKV | -1.69
HMVINKRELNVLSIYSRGSEKRAIILFPTGQTKLVKVGDTLNGGRVAAIGTTEIRYIKGGNNLVLKIPQ | ≥ 0.43
HMGVAASEVHREKKESSLQWRQSYNVATDQRRQGKTYKEITEFLNGAELKNSKGGTWSISGVRKMLM | ≥ 0.43
HMFENPRALLEMMISLGNEQGLINMARDIVSAGEFRRLELAAGGDRRKLARMLIDHLVEVAPRLP | -0.585
HMSNYYNILGVNKSSTQDEIKKAFRKKAVEHHPDKGGNEATFKKINEAYNTLSDNNKRHMYDMQQSG | 0.267
HMTMEQAEFLSRQFNLLSQRLNDPSIEWQDIADLRSEYTGEDEHRDTIRKGAKLFYEYLEAGWIKN | -0.867

Sequence | soluble fraction (log2)
HMNAVYPNPFVSEIYIGENNRSVEIYNLNGGLVYGMSQPSSRIDVSGLAAGSYILIKKDSSGHISSHKIMK | -0.261
HMYQNRLFYTLKTGETVADLSKSQDINLSTIWSLNKHLYSSESEMMKAAPGQQIILPLKKLP | 0.135
HMEDISQHAVKKLVQEMVMAEDPRDPLSDQQIAENLSRLGLKVARRTVAKYRAMLGIQPSNRRRK | 0.0963
HMGEPLTVVAAAGGDRLDRWLAGQLAGRSRAEIQRWIEAGQVTLAGRSLKASYRLSAGDAIDVAIPPPE | -0.0638
HMRLIDVFELSPKNRTVLQLYYYEGYSVTEISKILKISVNGVTSRLSRARSKLKLEMEAAENE | -0.0525
HMATYDIDALKVDLPSAKELAQFVYDKTDGLVSLDLIGKPKEEQYIVAKNALEGKKVPAEYLTGFNPY | -0.273
HMNGQITPSRAKEIALGHAGVSEGSANFKKIKLDNKNGRPAYEIEFIANNSRYEFEINASNGSIIKFNK | -0.0812
HMDGYLQLASKKNELITQLKTPPKPKRLFKDFEDRVYLITEYKVFVVSIFQNEFRLRPVNKDDFYRYTT | -0.134
HMGRTITVGIAEDADIKDIAKMLEEKGLISDYRLFVVQELLSAQHDKIKPGIYDLSTDMKAEEMLEILAG | -1.33
HMIQTKNVTFTINEKTKIANIPLKSLKILSQEDNRITLSYEKNSLKIDEIISYFSDKNINILDITTD | -1.05
HMISDDLYQAVLDFTLTQDTISISRLQQNFNLGWPRARQLYDQLMQNGIIEPPDEANSAKGAVVIANKRG | -1.06
HMALTARDLGLTHRQADVLHLVLQGKPVKLIARDLGLAEGTVKSHVSAVLRALNVTTRTQAIVAAGRLGLM | ≥ 0.43
HMSHGSIYFSGKTGLKGSVDINGTVNSINKKIFLKPGNYNFLIKADGYKNLKGSFQISKGDKKFVELVLIP | -0.0804
HMIKEVEYSQFLQMTDQGEVGKVEINEQENSILFTDKAEKNIYKTGMVEDAELSMRLYEAGIPFSGQI | -2.29
HMLQVSDENFVVELVQKVLLDNPSSVQEYKNGKESVLQFLIGQAMKASKGTANPQIVKEIMLKLL | -0.443
HMNGADPYEQLGVTRDASDDELKAAHRKLSRENHPDTLMAKGMPPEFIEQANDKMARINAAWDQIRKERGI | 0.124
HMVMIPDLVGETIEDAKDILEGLGFEVEVRSEFPESDWGRPFARVTSLSPSAGQEVAKGTLVIIRSF | -0.144
HMVSPLEKSQSFGSFEISREFARTLGLTSARNWENWAASDSRPINIPYSPNVFYKNKGWIDWSDWLGTE | -0.124
HMVRKIQAKLVLRLHAQGLSGRAIARSQGMSRRSVSDVLDAARAVGVGWDDVTGKTDGEVYALLFPGRG | 0.0261
HMAENPAYTKGVVNRLYKIRATPYYSYSYNVDQKTYEGRGKQYGEYENLHIGDTITVYYQRSNPSNSEA | -0.112
HMSGEIPFPPAFKPSADHIAIASEKGINIETELLNFRDYHQARGTKLIDWNSAFRVWLRNAR | -0.869
HMLPSDLDEGNRRRQLIEGAARLFRAKGFDGTSTRDIAAAAGMRSGSPFYHFDSKNALLYVVVQEGM | -0.115
HMKRIHLSDEEKTDLESLHYSSNDGKQRDRIKAVLLRSEGWTVPMISQALRIHETTVTRYLNDYREGKLKN | -0.143
HMSVKVFRDQILLNNDSDKMLQLSFSNLFGQKVLETSISPGKSAISTGNLPPGIYFITTSPATGVMRVII | -0.544
